{"source": "paper PMC8200818", "about": "“SPECT/CT Imaging, Biodistribution and Radiation Dosimetry of a ^177Lu-DOTA-Integrin αvβ6 Cystine Knot Peptide in a Pancreatic Cancer Xenograft Model” (Frontiers in Oncology, 2021)", "key": {"in vivo": {"experiment": "in vivo", "details": "female, athymic NMRI-Foxn1^nu/Foxn1^nu, mouse, iv, 1 MBq, total radioactivity", "source_text": "(§1) For in vivo experiments, at least 8-week-old female athymic NMRI-Foxn1^nu/Foxn1^nu mice (Janvier Labs, Saint-Berthevin, France) were used. Animal care followed institutional guidelines and all experiments were approved by local animal research authorities. For the generation of tumor xenografts, 5 x 10^6 cells of Capan-2 cells were inoculated subcutaneously into the left and right shoulder (1:1 phosphate-buffered saline [PBS]/Matrigel Basement Membrane Matrix High Concentration, Corning, Corning, USA). Tumors were allowed to grow for two to four weeks (tumor volume > 100 mm^3) after cell inoculation.\n(§2) Radiolabeling of the DOTA-integrin αvβ6 knottin was carried out manually using [^177Lu]LuCl3 and a reagent kit from ITG Isotope Technologies Garching GmbH (Garching, Germany). A total of 40 µL (stock solution of peptide at 1 µg/µL in 10% DMSO in water) was added to 500 µL of ascorbate buffer solution pH 5.0, prepared from the kit (composition not disclosed by vendor) and the resulting mixture was then added to 35 µL of [^177Lu]LuCl3 (2 GBq in aqueous 0.04 M HCl) and the reaction mixture was heated at 80 °C for 35 minutes followed by cooling for 10 minutes at room temperature. The product was then diluted with 0.5 mL of saline and the pH was adjusted to 7 using a 1 M aqueous solution of NaHCO3 prior to injection in mice. A reverse-phase HPLC system (Knauer GmbH, Germany) with a column (Eurospher II, C18, 250 × 4 mm) was used to determine the radiochemical purity of the radiotracer. The HPLC system was equipped with an Azura P.6.1L pump coupled with ultraviolet (Azura UVD 2.1L) and radiometric (γ-Raytest-Isotopenmessgeraete GmbH, Germany) detectors. The gradient elution system used mobile phase A (100% acetonitrile) and mobile phase B (deionized H2O containing 0.1% trifluoroacetic acid) and a flow rate of 1.0 mL/min. Starting with 0% A and 100% B, the gradient was increased to 100% A over 25 min and finally returned to initial gradient conditions within 5 min.\nTumor-bearing mice (n=4-5 per time point) were injected with approximately 1 MBq (22 pmol) of ^177Lu-DOTA-integrin αvβ6 knottin to the tail vein via a catheter. Mice (n=4-5 per time point) were sacrificed and dissected one, two, three and eight days post injection. Tumor, blood, stomach, pancreas, small intestine, colon, liver, spleen, kidney, heart, lung, muscle and femur samples were weighed and uptake of radioactivity was measured by a gamma counter."}, "Capan-2 xenografts": {"test_system": "Capan-2 xenografts", "source_text": "as §1, §2\nSPECT and CT imaging were performed using the nanoSPECT/CTplus scanner (Mediso, Hungary/Bioscan, France). […]"}}}
{"smiles": "CC[C@H](C)[C@@H]1NC(=O)[C@@H](NC(=O)CNC(=O)CN2CCN(CC(=O)O)CCN(CC(=O)O)CCN(CC(=O)O)CC2)CSSC[C@@H]2NC(=O)[C@H](C)NC(=O)CNC(=O)[C@@H]3CCCN3C(=O)[C@@H]3CSSC[C@@H](C(=O)NCC(=O)O)NC(=O)[C@H](Cc4ccc(O)cc4)NC(=O)CNC(=O)[C@H](CC(N)=O)NC(=O)CNC(=O)[C@H](CCCNC(=N)N)NC(=O)[C@H](CSSC[C@H](NC(=O)[C@H](CCCNC(=N)N)NC(=O)[C@H](Cc4ccccc4)NC(=O)[C@H](CC(C)C)NC(=O)[C@H](CC(C)C)NC(=O)[C@H]([C@@H](C)O)NC(=O)CNC(=O)[C@H](CC(C)C)NC(=O)[C@H](CC(=O)O)NC(=O)[C@H]([C@@H](C)O)NC(=O)[C@H](CCCNC(=N)N)NC(=O)CNC(=O)[C@H](CC(N)=O)NC(=O)[C@H](CC(C)C)NC1=O)C(=O)N[C@@H](CCCNC(=N)N)C(=O)N[C@@H](CCCNC(=N)N)C(=O)N[C@@H](CC(=O)O)C(=O)N[C@@H](CO)C(=O)N[C@@H](CC(=O)O)C(=O)N3)NC(=O)[C@H]([C@@H](C)CC)NC2=O", "note": "[^177Lu-DOTA-integrin αvβ6 knottin, metal not drawn]", "values": [{"measurement": "tissue uptake at 24 h", "setting": "in vivo; femur, Femur uptake, 24 h p.i., ~1 MBq i.v., nude mice, Capan-2 xenografts, mean ± SD (4 ≤ n ≤ 5)", "value": 0.3, "unit": "%ID/g"}, {"measurement": "tissue uptake at 48 h", "setting": "in vivo; femur, Femur uptake, 48 h p.i., ~1 MBq i.v., nude mice, Capan-2 xenografts, mean ± SD (4 ≤ n ≤ 5)", "value": 0.45, "unit": "%ID/g"}, {"measurement": "tissue uptake at 72 h", "setting": "in vivo; femur, Femur uptake, 72 h p.i., ~1 MBq i.v., nude mice, Capan-2 xenografts, mean ± SD (4 ≤ n ≤ 5)", "value": 0.13, "unit": "%ID/g"}, {"measurement": "tissue uptake at 192 h", "setting": "in vivo; femur, Femur uptake, 192 h p.i., ~1 MBq i.v., nude mice, Capan-2 xenografts, mean ± SD (4 ≤ n ≤ 5)", "value": 0.07, "unit": "%ID/g"}, {"measurement": "tissue uptake at 24 h", "setting": "in vivo; heart, Heart uptake, 24 h p.i., ~1 MBq i.v., nude mice, Capan-2 xenografts, mean ± SD (4 ≤ n ≤ 5)", "value": 0.16, "unit": "%ID/g"}, {"measurement": "tissue uptake at 48 h", "setting": "in vivo; heart, Heart uptake, 48 h p.i., ~1 MBq i.v., nude mice, Capan-2 xenografts, mean ± SD (4 ≤ n ≤ 5)", "value": 0.07, "unit": "%ID/g"}, {"measurement": "tissue uptake at 72 h", "setting": "in vivo; heart, Heart uptake, 72 h p.i., ~1 MBq i.v., nude mice, Capan-2 xenografts, mean ± SD (4 ≤ n ≤ 5)", "value": 0.08, "unit": "%ID/g"}, {"measurement": "tissue uptake at 192 h", "setting": "in vivo; heart, Heart uptake, 192 h p.i., ~1 MBq i.v., nude mice, Capan-2 xenografts, mean ± SD (4 ≤ n ≤ 5)", "value": 0.04, "unit": "%ID/g"}, {"measurement": "tissue uptake at 24 h", "setting": "in vivo; kidney, Kidney uptake, 24 h p.i., ~1 MBq i.v., nude mice, Capan-2 xenografts, mean ± SD (4 ≤ n ≤ 5)", "value": 19.2, "unit": "%ID/g"}, {"measurement": "tissue uptake at 48 h", "setting": "in vivo; kidney, Kidney uptake, 48 h p.i., ~1 MBq i.v., nude mice, Capan-2 xenografts, mean ± SD (4 ≤ n ≤ 5)", "value": 12.5, "unit": "%ID/g"}, {"measurement": "tissue uptake at 72 h", "setting": "in vivo; kidney, Kidney uptake, 72 h p.i., ~1 MBq i.v., nude mice, Capan-2 xenografts, mean ± SD (4 ≤ n ≤ 5)", "value": 14.7, "unit": "%ID/g"}, {"measurement": "tissue uptake at 192 h", "setting": "in vivo; kidney, Kidney uptake, 192 h p.i., ~1 MBq i.v., nude mice, Capan-2 xenografts, mean ± SD (4 ≤ n ≤ 5)", "value": 2.28, "unit": "%ID/g"}, {"measurement": "tissue uptake at 24 h", "setting": "in vivo; kidney, Kidney uptake, day 1 p.i., ~1 MBq i.v., Capan-2 xenograft mice", "value": "19.2 ± 2.5", "unit": "%ID/g"}, {"measurement": "tissue uptake at 72 h", "setting": "in vivo; kidney, Kidney uptake, day 3 p.i., ~1 MBq i.v., Capan-2 xenograft mice", "value": "14.7 ± 4.5", "unit": "%ID/g"}, {"measurement": "tissue uptake at 192 h", "setting": "in vivo; kidney, Kidney uptake, day 8 p.i., ~1 MBq i.v., Capan-2 xenograft mice", "value": "2.3 ± 0.4", "unit": "%ID/g"}, {"measurement": "tissue uptake at 24 h", "setting": "in vivo; lung, Lung uptake, 24 h p.i., ~1 MBq i.v., nude mice, Capan-2 xenografts, mean ± SD (4 ≤ n ≤ 5)", "value": 1.74, "unit": "%ID/g"}, {"measurement": "tissue uptake at 48 h", "setting": "in vivo; lung, Lung uptake, 48 h p.i., ~1 MBq i.v., nude mice, Capan-2 xenografts, mean ± SD (4 ≤ n ≤ 5)", "value": 0.53, "unit": "%ID/g"}, {"measurement": "tissue uptake at 72 h", "setting": "in vivo; lung, Lung uptake, 72 h p.i., ~1 MBq i.v., nude mice, Capan-2 xenografts, mean ± SD (4 ≤ n ≤ 5)", "value": 0.52, "unit": "%ID/g"}, {"measurement": "tissue uptake at 192 h", "setting": "in vivo; lung, Lung uptake, 192 h p.i., ~1 MBq i.v., nude mice, Capan-2 xenografts, mean ± SD (4 ≤ n ≤ 5)", "value": 0.06, "unit": "%ID/g"}, {"measurement": "tissue uptake at 24 h", "setting": "in vivo; muscle, Muscle uptake, 24 h p.i., ~1 MBq i.v., nude mice, Capan-2 xenografts, mean ± SD (4 ≤ n ≤ 5)", "value": 0.26, "unit": "%ID/g"}, {"measurement": "tissue uptake at 48 h", "setting": "in vivo; muscle, Muscle uptake, 48 h p.i., ~1 MBq i.v., nude mice, Capan-2 xenografts, mean ± SD (4 ≤ n ≤ 5)", "value": 0.11, "unit": "%ID/g"}, {"measurement": "tissue uptake at 72 h", "setting": "in vivo; muscle, Muscle uptake, 72 h p.i., ~1 MBq i.v., nude mice, Capan-2 xenografts, mean ± SD (4 ≤ n ≤ 5)", "value": 0.1, "unit": "%ID/g"}, {"measurement": "tissue uptake at 192 h", "setting": "in vivo; muscle, Muscle uptake, 192 h p.i., ~1 MBq i.v., nude mice, Capan-2 xenografts, mean ± SD (4 ≤ n ≤ 5)", "value": 0.04, "unit": "%ID/g"}, {"measurement": "tissue uptake at 24 h", "setting": "in vivo; pancreas, Pancreas uptake, 24 h p.i., ~1 MBq i.v., nude mice, Capan-2 xenografts, mean ± SD (4 ≤ n ≤ 5)", "value": 0.65, "unit": "%ID/g"}, {"measurement": "tissue uptake at 48 h", "setting": "in vivo; pancreas, Pancreas uptake, 48 h p.i., ~1 MBq i.v., nude mice, Capan-2 xenografts, mean ± SD (4 ≤ n ≤ 5)", "value": 0.17, "unit": "%ID/g"}, {"measurement": "tissue uptake at 72 h", "setting": "in vivo; pancreas, Pancreas uptake, 72 h p.i., ~1 MBq i.v., nude mice, Capan-2 xenografts, mean ± SD (4 ≤ n ≤ 5)", "value": 0.29, "unit": "%ID/g"}, {"measurement": "tissue uptake at 192 h", "setting": "in vivo; pancreas, Pancreas uptake, 192 h p.i., ~1 MBq i.v., nude mice, Capan-2 xenografts, mean ± SD (4 ≤ n ≤ 5)", "value": 0.03, "unit": "%ID/g"}, {"measurement": "tissue uptake at 192 h", "setting": "in vivo; spleen, Spleen uptake, 192 h p.i., ~1 MBq i.v., nude mice, Capan-2 xenografts, mean ± SD (4 ≤ n ≤ 5)", "value": 0.04, "unit": "%ID/g"}, {"measurement": "tissue uptake at 24 h", "setting": "in vivo; stomach, Stomach uptake, 24 h p.i., ~1 MBq i.v., nude mice, Capan-2 xenografts, mean ± SD (4 ≤ n ≤ 5)", "value": 1.92, "unit": "%ID/g"}, {"measurement": "tissue uptake at 48 h", "setting": "in vivo; stomach, Stomach uptake, 48 h p.i., ~1 MBq i.v., nude mice, Capan-2 xenografts, mean ± SD (4 ≤ n ≤ 5)", "value": 1.01, "unit": "%ID/g"}, {"measurement": "tissue uptake at 72 h", "setting": "in vivo; stomach, Stomach uptake, 72 h p.i., ~1 MBq i.v., nude mice, Capan-2 xenografts, mean ± SD (4 ≤ n ≤ 5)", "value": 0.83, "unit": "%ID/g"}, {"measurement": "tissue uptake at 192 h", "setting": "in vivo; stomach, Stomach uptake, 192 h p.i., ~1 MBq i.v., nude mice, Capan-2 xenografts, mean ± SD (4 ≤ n ≤ 5)", "value": 0.14, "unit": "%ID/g"}, {"measurement": "tissue uptake at 24 h", "setting": "in vivo; tail, Tail activity, 24 h p.i., ~1 MBq i.v., nude mice, Capan-2 xenografts, mean ± SD (4 ≤ n ≤ 5)", "value": 0.31, "unit": "%ID/g"}, {"measurement": "tissue uptake at 48 h", "setting": "in vivo; tail, Tail activity, 48 h p.i., ~1 MBq i.v., nude mice, Capan-2 xenografts, mean ± SD (4 ≤ n ≤ 5)", "value": 0.2, "unit": "%ID/g"}, {"measurement": "tissue uptake at 24 h", "setting": "in vivo; tumor, Tumor uptake, 24 h p.i., ~1 MBq (22 pmol) i.v., nude mice, Capan-2 xenografts, mean ± SD (4 ≤ n ≤ 5)", "value": 3.13, "unit": "%ID/g"}, {"measurement": "tissue uptake at 24 h", "setting": "in vivo; tumor, Tumor uptake, day 1 p.i., ~1 MBq i.v., Capan-2 xenografts, mean ± S.E.M.", "value": "3.1 ± 0.6", "unit": "%ID/g"}, {"measurement": "tissue uptake at 48 h", "setting": "in vivo; tumor, Tumor uptake, day 2 p.i., ~1 MBq i.v., Capan-2 xenografts, mean ± S.E.M.", "value": "2.5 ± 0.4", "unit": "%ID/g"}, {"measurement": "tissue uptake at 72 h", "setting": "in vivo; tumor, Tumor uptake, day 3 p.i., ~1 MBq i.v., Capan-2 xenografts, mean ± S.E.M.", "value": "3.5 ± 0.9", "unit": "%ID/g"}, {"measurement": "tissue uptake at 192 h", "setting": "in vivo; tumor, Tumor uptake, day 8 p.i., ~1 MBq i.v., Capan-2 xenografts, mean ± S.E.M.", "value": "1.2 ± 0.2", "unit": "%ID/g"}, {"measurement": "Tracer accumulation (SPECT MIP)", "setting": "Capan-2 xenografts; 22 h p.i., 62 MBq i.v.", "value": "accumulation of ^177Lu-DOTA-integrin αvβ6 knottin in both the tumors and the kidneys"}, {"measurement": "Uptake by other organs (SPECT)", "setting": "Capan-2 xenografts; 22 h p.i., 62 MBq i.v.", "value": "low or moderate"}, {"measurement": "Initial kidney accumulation (SPECT)", "setting": "Capan-2 xenografts; kidney versus tumor, up to 3 h p.i.", "value": "higher initial accumulation"}]}
